Data reported in patent US6114125.

Target: β-casein
Settings: scale: % of the protease activity of natural Hin47 protein

Hin47 Ser-197->alanine analog (enzyme)
Protease activity (digestion of β-casein, SDS-PAGE): < 10
